Data: the RNAGym collection of RNA variant scans (doi:10.1101/gr.219683.116)

B1: mRNA-splicing (parent)
chain: AGUUGCUGCUGGGAGCUCCAGCACAGUGAAAUGGACAGAAGGGCAGAGCAA

Variants of: B1
Test: exon inclusion enrichment index; higher = more inclusion; WT1 exon 5 minigene, HEK293

Variant | exon inclusion enrichment index
G5A C6U U7A G8U C9A G26U U27G | 0.261
G5A C6U U7A G8U C9A G26U U27C | 0.536
G5A C6U U7A G8U C9A G26U U27A | 0.0488
G5A C6U U7A G8U C9A G21A C22U | 0.021
G5A C6U U7A G8U C9A G21A C22A | 0.0256
G5A C6U U7A G8U C9A G21A C22G | 0.0719
G5A C6U U7A G8U C9A G38A | 0.0251
G5A C6U U7A G8U C9A G38C | 0.0329
G5A C6U U7A G8U C9A G38U | 0.0207
G5A C6U U7A G8U C9A G41A G42A | 0.0506
G5A C6U U7A G8U C9A G41A G42U | 0.0659
G5A C6U U7A G8U C9A G41A G42C | 0.172
G5A C6U U7A G8U C9A G38C A39C | 0.105
G5A C6U U7A G8U C9A G38C A39U | 0.0021
G5A C6U U7A G8U C9A G38C A39G | 0.115
G5A C6U U7A G8U C9A G46C A47G | 0.159
G5A C6U U7A G8U C9A G46C A47U | 0.0869
G5A C6U U7A G8U C9A G46C A47C | 0.144
G5A C6U U7A G8U C9A A47G G48A | 0.0214
G5A C6U U7A G8U C9A A47G G48C | 0.0173
G5A C6U U7A G8U C9A A47G G48U | 0.00228
G5A C6U U7A G8U C9A G43C C44U | 0.033
G5A C6U U7A G8U C9A G43C C44G | 1.01
G5A C6U U7A G8U C9A G43C C44A | 0.403

Variant | exon inclusion enrichment index
G5A C6U U7A G8U C9A G48C | 0.13
G5A C6U U7A G8U C9A G48A | 0.185
G5A C6U U7A G8U C9A G48U | 0.114
G5A C6U U7A G8U C9A C22A A23C | 0.189
G5A C6U U7A G8U C9A C22A A23U | 0.0397
G5A C6U U7A G8U C9A C22A A23G | 0.0409
G5A C6U U7A G8U C9A G34C A35C | 0.00243
G5A C6U U7A G8U C9A G34C A35G | 0.0452
G5A C6U U7A G8U C9A G34C A35U | 0.0109
G5A C6U U7A G8U C9A C44G A45G | 0.0089
G5A C6U U7A G8U C9A C44G A45C | 0.138
G5A C6U U7A G8U C9A C44G A45U | 0.0272
G5A C6U U7A G8U C9A A31U U32G | 0.0286
G5A C6U U7A G8U C9A A31U U32A | 0.0012
G5A C6U U7A G8U C9A A31U U32C | 0.168
G5A C6U U7A G8U C9A A35G C36U | 0.00124
G5A C6U U7A G8U C9A A35G C36G | 0.00488
G5A C6U U7A G8U C9A A35G C36A | 0.0117
G5A C6U U7A G8U C9A C16G U17A | 0.0334
G5A C6U U7A G8U C9A C16G U17C | 0.00521
G5A C6U U7A G8U C9A C16G U17G | 0.00515
G5A C6U U7A G8U C9A G13A A14C | 0.394
G5A C6U U7A G8U C9A G13A A14U | 0.189
G5A C6U U7A G8U C9A G13A A14G | 0.0895

Variant | exon inclusion enrichment index
G5A C6U U7A G8U C9A A47U G48U | 0.0462
G5A C6U U7A G8U C9A A47U G48A | 0.0443
G5A C6U U7A G8U C9A A47U G48C | 0.0371
G5A C6U U7A G8U C9A G21C C22G | 0.197
G5A C6U U7A G8U C9A G21C C22U | 0.0665
G5A C6U U7A G8U C9A G21C C22A | 0.109
G5A C6U U7A G8U C9A G15C C16G | 0.0723
G5A C6U U7A G8U C9A G15C C16U | 0.0353
G5A C6U U7A G8U C9A G15C C16A | 0.0446
G5A C6U U7A G8U C9A C24U A25U | 0.0538
G5A C6U U7A G8U C9A C24U A25G | 0.165
G5A C6U U7A G8U C9A C24U A25C | 0.546
G5A C6U U7A G8U C9A G13C A14C | 0.039
G5A C6U U7A G8U C9A G13C A14U | 0.0623
G5A C6U U7A G8U C9A G13C A14G | 0.145
G5A C6U U7A G8U C9A C36U A37U | 0.0384
G5A C6U U7A G8U C9A C36U A37G | 0.0518
G5A C6U U7A G8U C9A C36U A37C | 0.0296
G5A C6U U7A G8U C9A C18A C19G | 0.00128
G5A C6U U7A G8U C9A C18A C19A | 0.00553
G5A C6U U7A G8U C9A C18A C19U | 0.00112
G5A C6U U7A G8U C9A C22U A23C | 0.0341
G5A C6U U7A G8U C9A C22U A23G | 0.0485
G5A C6U U7A G8U C9A C22U A23U | 0.0179

Variant | exon inclusion enrichment index
G5A C6U U7A G8U C9A G26C | 0.142
G5A C6U U7A G8U C9A G26U | 0.0898
G5A C6U U7A G8U C9A G26A | 0.141
G5A C6U U7A G8U C9A C36A | 0.0298
G5A C6U U7A G8U C9A C36U | 0.00462
G5A C6U U7A G8U C9A C36G | 0.0434
G5A C6U U7A G8U C9A G12C | 0.0374
G5A C6U U7A G8U C9A G12U | 0.0278
G5A C6U U7A G8U C9A G12A | 0.0361
G5A C6U U7A G8U C9A C24G A25C | 0.392
G5A C6U U7A G8U C9A C24G A25G | 0.0168
G5A C6U U7A G8U C9A C24G A25U | 0.0695
G5A C6U U7A G8U C9A G41U G42A | 0.0133
G5A C6U U7A G8U C9A G41U G42C | 0.226
G5A C6U U7A G8U C9A G41U G42U | 0.0785
G5A C6U U7A G8U C9A G43U C44A | 0.00905
G5A C6U U7A G8U C9A G43U C44U | 0.00909
G5A C6U U7A G8U C9A G43U C44G | 0.073
G5A C6U U7A G8U C9A G34U | 0.00388
G5A C6U U7A G8U C9A G34C | 0.0129
G5A C6U U7A G8U C9A G34A | 0.0272
G5A C6U U7A G8U C9A C16G | 0.0112
G5A C6U U7A G8U C9A C16U | 0.0512
G5A C6U U7A G8U C9A C16A | 0.0643

Variant | exon inclusion enrichment index
G5A C6U U7A G8U C9A G12C G13C | 0.0141
G5A C6U U7A G8U C9A G12C G13A | 0.0284
G5A C6U U7A G8U C9A G12C G13U | 0.000527
G5A C6U U7A G8U C9A A40C G41A | 0.00954
G5A C6U U7A G8U C9A A40C G41C | 0.455
G5A C6U U7A G8U C9A A40C G41U | 0.0189
G5A C6U U7A G8U C9A G42U G43U | 0.23
G5A C6U U7A G8U C9A G42U G43C | 0.0628
G5A C6U U7A G8U C9A G42U G43A | 0.282
G5A C6U U7A G8U C9A C22A | 0.0781
G5A C6U U7A G8U C9A C22G | 0.0616
G5A C6U U7A G8U C9A C22U | 0.0424
G5A C6U U7A G8U C9A G11U G12A | 0.00404
G5A C6U U7A G8U C9A G11U G12C | 0.033
G5A C6U U7A G8U C9A G11U G12U | 0.00843
G5A C6U U7A G8U C9A C36G A37G | 0.00777
G5A C6U U7A G8U C9A C36G A37U | 0.0196
G5A C6U U7A G8U C9A C36G A37C | 0.0098
G5A C6U U7A G8U C9A A35U C36A | 0.000817
G5A C6U U7A G8U C9A A35U C36U | 0.000729
G5A C6U U7A G8U C9A A35U C36G | 0.00319
G5A C6U U7A G8U C9A G33A G34C | 0.0195
G5A C6U U7A G8U C9A G33A G34U | 0.0125
G5A C6U U7A G8U C9A G33A G34A | 0.0009

Variant | exon inclusion enrichment index
G5A C6U U7A G8U C9A G15A C16A | 0.0139
G5A C6U U7A G8U C9A G15A C16G | 0.0191
G5A C6U U7A G8U C9A G15A C16U | 0.0138
G5A C6U U7A G8U C9A C44A A45C | 0.248
G5A C6U U7A G8U C9A C44A A45G | 0.0995
G5A C6U U7A G8U C9A C44A A45U | 0.189
G5A C6U U7A G8U C9A G13U A14U | 0.0119
G5A C6U U7A G8U C9A G13U A14G | 0.00922
G5A C6U U7A G8U C9A G13U A14C | 0.0467
G5A C6U U7A G8U C9A G26A U27G | 0.168
G5A C6U U7A G8U C9A G26A U27A | 0.122
G5A C6U U7A G8U C9A G26A U27C | 0.504
G5A C6U U7A G8U C9A C36A A37U | 0.0158
G5A C6U U7A G8U C9A C36A A37G | 0.0248
G5A C6U U7A G8U C9A C36A A37C | 0.0847
G5A C6U U7A G8U C9A A45C | 0.106
G5A C6U U7A G8U C9A A45U | 0.132
G5A C6U U7A G8U C9A A45G | 0.212
G5A C6U U7A G8U C9A C18U | 0.0307
G5A C6U U7A G8U C9A C18G | 0.0618
G5A C6U U7A G8U C9A C18A | 0.017
G5A C6U U7A G8U C9A G43U | 0.0904
G5A C6U U7A G8U C9A G43A | 0.454
G5A C6U U7A G8U C9A G43C | 0.15

Variant | exon inclusion enrichment index
G5A C6U U7A G8U C9A G41A | 0.0374
G5A C6U U7A G8U C9A G41U | 0.077
G5A C6U U7A G8U C9A G41C | 0.435
G5A C6U U7A G8U C9A G28C A29G | 0.178
G5A C6U U7A G8U C9A G28C A29U | 0.0282
G5A C6U U7A G8U C9A G28C A29C | 0.0748
G5A C6U U7A G8U C9A G33U G34A | 0.0131
G5A C6U U7A G8U C9A G33U G34U | 0.0031
G5A C6U U7A G8U C9A G33U G34C | 0.00527
G5A C6U U7A G8U C9A C19G A20C | 0.0894
G5A C6U U7A G8U C9A C19G A20G | 0.0128
G5A C6U U7A G8U C9A C19G A20U | 0.0389
G5A C6U U7A G8U C9A C18U C19A | 0.00119
G5A C6U U7A G8U C9A C18U C19U | 0.00085
G5A C6U U7A G8U C9A C18U C19G | 0.0036
G5A C6U U7A G8U C9A A31U | 0.0565
G5A C6U U7A G8U C9A A40C | 0.241
G5A C6U U7A G8U C9A A40U | 0.0441
G5A C6U U7A G8U C9A A40G | 0.0627
G5A C6U U7A G8U C9A C24A A25U | 0.0699
G5A C6U U7A G8U C9A C24A A25C | 0.405
G5A C6U U7A G8U C9A C24A A25G | 0.0412
G5A C6U U7A G8U C9A A39U | 0.0074
